Experimental data from the DeepSol protein solubility set.

Test: soluble on expression in E. coli; label from the status in PepcDB or PDB records

| Sequence | soluble on expression in E. coli |
| --- | --- |
| MLMSVFHNWLLEIACENYFVYIKRLSANDTGATGGHQVGLYIPSGIVEKLFPSINHTRELNPSVFLTAHVSSHDCPDSEARAIYYNSAHFGKTRNEKRITRWGRGSPLQDPENTGALTLLAFKLDEQGGDCKEVNIWVCASTDEEDVIETAIGEVIPGALISGPAGQILGGLSLQQAPVNHKYILPEDWHLRFPSGSEIIQYAASHYVKNSLDPDEQLLDRRRVEYDIFLLVEELHVLDIIRKGFGSVDEFIALANSVSNRRKSRAGKSLELHLEHLFIEHGLRHFATQAITEGNKKPDFLFPSAGAYHDTEFPVENLRMLAVKTTCKDRWRQILNEADKIHQVHLFTLQEGVSLAQYREMRESGVRLVVPSSLHKKYPEAVRAELMTLGAFIAELTGLYADIP | soluble |
| ASGFAGHLSVGFSPVVGPVVLPESIRRFRAAYPDVLVSVIEASIDLLLPGLRNGDFDIVVGRLEEVAMPEDVRCETLYDEPVCLVAGRAHPLAGRRRISWEDAQAYPWISPQQGTPLRMRLEMELAVAGQPLPRHAVESTSVQTNVALLDRS | not soluble |
| MGSDKIHHHHHHMEVAAVDSLEALYKMVAKLYRRLSASARKRLLEGVELAAEKGDPALAYHRLSTLARDYYGDSLPYASDGYYKTYKHTRCVGLPEPTKVSGVDVLEAIRRRRSRRSFSRRPLTLTEVSTILFHVAGITGLAWWGGPKRPYPSAGALQPVEAYLVVERVEGLKPGLYHYNPSGHCLEMLREGKLLGRLADVSLGQDHVAEAAAALVLTAVYTRTGSKYGHRSYRYVHWDTGFAGENVYLVCEALGLATVAVGAFYDDEMCGFLEIDCPWEMPMLVFPVGARG | not soluble |
| MGSDKIHHHHHHMGDLSFIAINDKCEVVLDNEIYKSNIQGIEEKYIAISLPVANGTYAIMHKGDMTEIWCYHDNQVYSFTSTVIERKKEDAIKLILISKPSYENIKRVQRRKNFRVDLIESIKYKVLNKNVVKTEIEKLKEASEEFSDGYMIDLSGGGLKIRIKQKPNVGDSIFVNLPIGDQKLFLISTCVRAIREVNGEYLCGLEFDDDIDERIREHIINYTFNIMRKHMKKR | not soluble |
| SREAVTVQVGGFANYVGSYFWNFQDELLGLADDPDADPVFKNAALDMDVLYRSGETHQGVATYCPRLVSVDSRGSLGSLSSSGNLGQSSTAADQLNVATWSGNVTRSVSKPHGRNLFLQSLVEEGQNPSTSNGGSNSQKSVEYKDLIECLENGINFWTDYSKVHYHPQSLYELYGSWTDFDKFDNYGSAQEVVSDWSQIEEMNERLRFFVEECDHIQGIQFIVDDSGGFSSVAAQFLENIADDYTNTLVLLYCVRDPMTLGPSRRNQRESIMRALHDAVSFSKLSSFCNLMVPIGPPSLSRSCMSPYLYIQDEKPFHASAVCAAAIHSITVPFRLQRTGPSSDLAHSSGNLDIGELVHILSDQGRQNMVTALDVAMPAPSLTDRDAMGNIEMKLHSLTPEISDEDEDPYSVESLVVHGALDRGGQRTSISQVKDSVCSVYEARETKPKFSHLSASLCPLPVPLPFPSIFRGNIGRHGEILSDHTEESQPKGSLDIESIPMAARLRSSSAVLPFIERRSGSLQKHGVARGAIGSLVLHDWGFGREEVEDMAEHLAKLLGPFHPEMDLTSDSD | soluble |
| MGHHHHHHSHMAKQPTVLWAQRESLVYLTIEVDEAKIEELKGEGNKLHFQGSSKTDKYEATLEFFDEIDPASVKHTGSSTRVVEITVQKKTPAWWPRLLQNKGKVHWLKVDFGKWKDEDEDDEAEDAGAGIGGGMANGFDLNQYMSQMGGAGGADFGGLEDDEEDDDMPDLEDNEEEEGKNGTRA | soluble |
| EKDSQSPKIRQKYLRQYPELNSLIPAVVTEVREKEATAALQNGQIIIIPWEGMSWARPALKRGGWVGKSPTKAQQVVAAGDIIYVHPTEKSWQLAQIP | not soluble |
| EVVRLGDVLELCQYGLSVPLKDKGKYPVIRMDEIVNGYVVTDIAKYADLDEETFKNFKLEKGDVLFNRTNSLELVGRTGIFLLDGYYVFASYLIRLRPKHEILHPHFLTFYLIFSQSRLKQLATVAVHQANINATNLKKFKIPLPPLPEQQKIAEILSTV | soluble |
| MGSDKIHHHHHHMEIRPEMFGQARAGAAWPDFGKPHVLRCDTGRSALKLALQCWAGRAGRDFTVWLPHYVCHSVAQAVRQAGHALAYYGHRPSEQIFSPPPTPQAGDLVLLVHYFGLRNRAALDWLSAHATRDFAVLEDCVQSPYTAGVGRLADFAISSLRKWWPTPDGATLASVYALDGLDLAASDEAFISQRMAAKQLRARGIGEERYLQWIDESESRLDDVVPRQASWLAASLLGEADIDVAMAARRENWFALAQGLAGLRGVAPLFRELAVDEIPLAYPVVVSATNRQKLRAALRDRRVFCPVHWDLESDAPEADTLLSARILSIPLDQRYAPADMRKVASMIGEFIAEELN | not soluble |
| MNKHERLDEIAKLVNKKGTIRTNEIVEGLNVSDMTVRRDLIELENKGILTKIHGGARSNSTFQYKEISHKEKHTRQIAEKRYIARKAASLIEDGDTLFFGPGTTVELLAEEVNHHTLTIITNCLPVYKILLEKQTAHFRVYLIGGEMRHITEAFVGEMANAMLEKLRFSKMFFSSNAVNKGAVMTSTLDEAYTQQLALSNSIEKYLLIDHTKVGKEDFTSFCQLNELTAVVMDYEDEEKVETIKTYIEVVDLEHHHHHH | soluble |
| MAHHHHHHMNIPNPRVFLDIAIGGRNAGRMIFELFMDKLPITCENFRCLCTGETGLGYYLKPRWYKNSPIHRIVTDFMFQGGDFNFGNGYGGESIYGQYFRNEKFIYKHSKRGILSMCQTRIKHTNNSQFFVTFKSCPWLDKRHVVLGHLEYGFDTLSFIEEQGTLIGKPKKQVFIYNCGVIPLDKIKYKSADNSDDDYIIPDIEKPLLEKDISINENSDFNELRNMYKYNKHF | not soluble |
| MRYVIAVKSPIYGKQGAFLAYQFAESLIKKEHEISQIFFFQDGVSNGNALVYPANDEVNLQKHWQMFSITYNVPLHLCVAASQRRGVVDNLTTPTTAHYNLAEGFTIAGLGEFIAASLNADRVITL | soluble |
| MEQKNEEIEAIDDRMIAGVEVNFQKMRRSKHKTEERLTSGQVDAFAQKLFEAYPDGSLEGFLDIDDVQKKKLDEQRQEFTGDYPIVQPVLDGSRELMVVLRYNPLYHAVEIYDPVQIYDSEGIPMVVKPIREQIVNLFAHLFLDKIRLIFDIEYEQQADKCSDRLRAVGAMMAIALGYNPAAMDYNLKGISKLVKKILNSESPDFKKFEKADIGTLNAKYSGQNRVTMFIGNNGETLLATRNVYGLEKHALKTGLGKMDKNGHVVERESFLEEEFHDETIYKQFHAPDLGMGKPDNVNAIKLFHVDYRDYDLQNANGLERPIYLEPYKPVQSDCFAVPNLTSTLDRVSSNGELLKYVNEVMQSITPYTPYHLHAQSVEYLRYTPRHMNMCINPLQAIRAWALLANMADGKTNTDLLNFVGKYTYPGQLENNKMMNDDILNLHFEAEKLFEGCVRVFTELPKHLWHNEDIRIIQNSYYGGKSLRGAMQHHCFATDPDGLYSCHRINEEVALSTHGAVNFVVPENHAPNWRASIALVSAMDCTFYWKTYAKPKLMDNFNFVNEQYGASKCVGYFAHADFKFFEDIYCLESRIPGVRLYITFESPDKMDSKKEFMSKLHEKIQTCGDWHTTFDSPVFLPLCTTSTPLSLYAHAKASGLSRIFSSEKSELLEMKSIPARGGARQFSTLYDHYHKTVFEVHGSDPKVENFMRKRPRRMFDQFSPARAHQCVDDSMAELHGKYQMKNPTKEFNNKMNINPLLTYRENHLNHDEPSFEWLHENHEFDLKDPKALMFNKPFYYVMTRALVGKNQLIVCAGYFNNTTWVKQQ | not soluble |
| ATEPFMKGRVKLLPDILPGKNKDHEFEALVSTIQDMSLKMMELMVERPPRELILSMRRNKNPMYQINFASANISTSIAVKQELLEISKMKDRGYRLLYLLHKELQVMELKASIQMKTREEMDKQQKEYFLQQQIKTIQEELGGNINDIEVQELRTKAATMKWSSEVAETFEKELRKLERLHPQSPDYSVQMQYVQTIISLPWGVFSKDNFNLKRAQSVLDRDHFGLEKVKERIIEHLAVLKMKGDMKSPIICLYGPPGVGKTSLGKSIAESLGRKYVRISLGGLHDEAEIRGHRRTYIGAMCGRIIQSLQRAGTSNPVFVLDEIDKIDSDYKGDPSSALLEVLDPEQNNAFHDNYLDIDFDLSHVLFIATANSLSSISRPLLDRMELIDV | not soluble |
| GPGSMLHFPITPPPIEIEYLDNDPLEFAVRTEARKWRFDDMGYMRELAFVRINNNPTVGDFRNMSPDERRNLFWGSDRQDFFRHLTCTLTGSPEHLYHRGW | not soluble |
